Assay [1] addresses Bcl-XL single-cysteine mutant 152C, Alexa647-labelled, Q07817-1. Briefly: FRET with purified proteins. The following applies: chain shown with the change, highest ABT-263 point, x position est. about 3000 nM, read off a plot.
Assay [2] has as its target mCerulean3-Bcl-2 (human), P10415. Briefly: FRET or BRET; FLIM-FRET in live MCF-7 cells: mCer3-Bcl-XL or mCer3-Bcl-2 stably expressed (donor), Venus-BH3 protein transiently expressed (acceptor); binding curves of FLIM-FRET efficiency against the Venus:mCer3 intensity ratio, 25 C; untreated, DMSO, 20 uM ABT-263 (18-24 h) or 1.25-20 uM A-1155463, A-1331852, ABT-263; R values interpolated at ratio 0.5 (Bcl-XL) or 0.25 (Bcl-2), ^VBad4E signal subtracted. The note with it: remark: other sources report otherwise.

Assay [3] addresses mCerulean3-Bcl-XL (human), Q07817. The description is as above. The following applies: remark: other sources report otherwise.
The mark [4] stands for this setting: in solution, without liposomes, parent: est. 68.
Setting [5] is: with liposomes, parent: est. 99.

Chain of Bcl-XL single-cysteine mutant 152C, Alexa647-labelled, Q07817-1 (Q07817 whole entry, stated change not applied): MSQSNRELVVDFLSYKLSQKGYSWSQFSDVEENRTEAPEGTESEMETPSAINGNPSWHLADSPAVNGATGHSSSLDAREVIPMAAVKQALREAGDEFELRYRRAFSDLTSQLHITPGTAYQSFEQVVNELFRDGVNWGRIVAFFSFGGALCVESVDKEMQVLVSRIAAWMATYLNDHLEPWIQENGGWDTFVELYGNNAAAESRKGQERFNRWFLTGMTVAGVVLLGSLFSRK
Chain of mCerulean3-Bcl-XL (human), Q07817 (Q07817 whole entry): as the sequence (Q07817 whole entry, stated change not applied) above
Chain of mCerulean3-Bcl-2 (human), P10415 (P10415 whole entry): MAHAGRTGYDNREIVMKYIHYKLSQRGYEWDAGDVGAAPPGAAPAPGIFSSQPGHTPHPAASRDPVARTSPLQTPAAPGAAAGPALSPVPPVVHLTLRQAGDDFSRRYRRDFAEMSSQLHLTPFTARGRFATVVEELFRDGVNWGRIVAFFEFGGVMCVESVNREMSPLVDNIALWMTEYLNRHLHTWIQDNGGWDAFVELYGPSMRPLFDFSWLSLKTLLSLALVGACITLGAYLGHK

B1: BimL single-cysteine mutant 41C, Alexa568-labelled I188E (protein)
chain: MAKQPSDVSSECDREGGQLQPAERPPQLRPGAPTSLQTEPCDRSPAPMSCDKSTQTPSPPCQAFNHYLSAMASIRQSQEEPEDLRPEIRIAQELRRIGDEFNETYTRRVFANDYREAEDHPQMVILQLLRFEFRLVWRRH
On to B1, for which the response (% BH3 protein bound) stood at 18 in assay [1] (setting [4]) and 22 in assay [1] (setting [5]).

B2: BimL single-cysteine mutant 41C, Alexa568-labelled I181E (protein)
chain: MAKQPSDVSSECDREGGQLQPAERPPQLRPGAPTSLQTEPCDRSPAPMSCDKSTQTPSPPCQAFNHYLSAMASIRQSQEEPEDLRPEIRIAQELRRIGDEFNETYTRRVFANDYREAEDHPQMVELQLLRFIFRLVWRRH
In the case of B2, the results for the response (% BH3 protein bound) in assay [1] (setting [4]) and in assay [1] (setting [5]) were 14 and 24, respectively.

B3: Venus-Bad, Q92934 1-168 (natural protein)
chain: MFQIPEFEPSEQEDSSSAERGLGPSPAGDGPSGSGKHHRQAPGLLWDASHQQEQPTSSSHHGGAGAVEIRSRHSSYPAGTEDDEGMGEEPSPFRGRSRSAPPNLWAAQRYGRELRRMSDEFVDSFKKGLPRPKSAGTATQMRQSSSWTRVFQSWWDRNLGRGSSAPSQ
Turning to B3, the R (ABT-263), % of FRET signal left with 20 uM ABT-263 in assay [2] worked out at 18.6%. In addition, in assay [3], the IC50 of A-1155463 for disrupting the pair is less than 1250 nM; the IC50 of A-1331852 for disrupting the pair is less than 1250 nM; the IC50 of ABT-263 for disrupting the pair is more than 10000 nM; the R (ABT-263), % of FRET signal left with 20 uM ABT-263 is 46.4%. In addition, in assay [3], the R with A-1155463, % of FRET signal left was found to be 45% and the R with A-1331852, % of FRET signal left is 20%.
